Source: patent US20240059766A1 (VOYAGER THERAPEUTICS, published 2024)
Where a chain is given by its changes, count along the chain named. Non-standard residues stand in square brackets, D forms with d. No end group written: not given here. pT = C[C@@H](OP(=O)(O)O)[C@H](N)C(=O)O

How the values were obtained:
[1] = target: T1, Tau191-214 phospho-peptide (pS199) (human, pS199 (phosphoserine); SCBio-4PEG in the ELISA); test: BLI
T1 construct: also called pS199 peptide

[2] = target: T2, SCBio-4PEG-Peptide (Tau191-214) pS199-old (human, pS199; SCBio-4PEG at the peptide as in the table head); test: one point ELISA
T2 construct: the suffix old is not explained
Excerpt: (§1) One-point ELISA was used to determine differential binding based on the individual phosphorylation patterns of each peptide. OD values (450 nm) were collected (as shown in Table 13), where a stronger positive signal is shown as a higher OD value, which is indicative of increased binding.

[3] = target: T1, Tau191-214 phospho-peptide (pS199); test: one point ELISA
Excerpt: as §1

[4] = target: Tau191-214 phospho-peptide (pS202) (human, pS202 (phosphoserine); SCBio-4PEG in the ELISA); test: one point ELISA
Excerpt: as §1

[5] = target: Tau191-214 phospho-peptide (pT205) (human, pT205 (phosphothreonine); SCBio-4PEG in the ELISA); test: one point ELISA
Excerpt: as §1

[6] = target: Tau191-214 phospho-peptide (pS199/pS202) (human, pS199, pS202; SCBio-4PEG in the ELISA); test: one point ELISA
Excerpt: as §1

[7] = target: Tau191-214 phospho-peptide (pS199/pT205) (human, pS199, pT205; SCBio-4PEG in the ELISA); test: one point ELISA
Excerpt: as §1

[8] = target: T3, Enriched paired helical filament (ePHF; sarkosyl insoluble tau) (human, UniProt P10636 2-758, pathological (hyperphosphorylated) tau isolated from brain; sites not stated); test: direct ELISA, coated antigen
T3 construct: aggregate isolated from AD frontal cortical tissue
Experimental: A set of recombinant human IgG1 antibodies were prepared with clone-specific variable domain pairs selected from those presented in Table 1 and human IgG1 constant domains. These candidate antibodies were analyzed for binding to ePHF and specificity for ePHF over wild type tau by direct ELISA.
For direct ePHF and wildtype tau ELISA, plates were first coated with ePHF or wild type tau. Antigen solutions were prepared in PBS and 50 μL were pipetted into each well. Plates were covered and incubated for one hour at 37° C. or overnight at 4° C. Plates were then washed and blocked by addition of 150 μl of blocking buffer to each well and incubated one hour at room temperature. Plates were then washed before addition of serially diluted candidate antibody samples prepared in blocking buffer. Detection of candidate antibody binding was carried out by washing plates and adding a solution of enzyme-labeled secondary antibody in blocking buffer to each well. Secondary antibody binding was detected by addition of substrate and spectrophotometric analysis of resulting reaction product.

iPHF = iPHF (UniProt P10636-8 2-441); test: BLI (Octet), antibody on biosensor tip
Experimental: Anti-human tau antibodies were assessed for affinity for iPHF by Octet (ForteBio, Menlo Park, CA) analysis. A set of recombinant human IgG1 antibodies were prepared with clone-specific variable domain pairs selected from those presented in Table 1 and human IgG1 constant domains. Candidate antibodies were immobilized on biosensor tips (ForteBio) in kinetic buffer (ForteBio). Biosensor tips were then washed before introduction of a solution of iPHF in kinetic buffer for analysis of association and dissociation with candidate antibodies.

[9] = target: T4, AT8 peptide (amino acids 195-215 of tau) (human, phospho-peptide; the phosphorylated sites are not stated; immobilized on streptavidin biosensor tips); test: BLI (Octet), peptide on streptavidin tip
T4 peptide: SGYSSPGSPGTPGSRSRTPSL
Experimental: Briefly, phospho-peptides were immobilized on streptavidin biosensor tips and the binding ability of each antibody was assessed using an eight-point concentration gradient.

[10] = target: T5, AT270 peptide (pT181; Tau172-186) (human); test: one point ELISA
T5 peptide: PAKTPPAPK[pT]PPSSG

T3 sequence (P10636 other isoform, or with tags, fused parts or gaps limits assumed): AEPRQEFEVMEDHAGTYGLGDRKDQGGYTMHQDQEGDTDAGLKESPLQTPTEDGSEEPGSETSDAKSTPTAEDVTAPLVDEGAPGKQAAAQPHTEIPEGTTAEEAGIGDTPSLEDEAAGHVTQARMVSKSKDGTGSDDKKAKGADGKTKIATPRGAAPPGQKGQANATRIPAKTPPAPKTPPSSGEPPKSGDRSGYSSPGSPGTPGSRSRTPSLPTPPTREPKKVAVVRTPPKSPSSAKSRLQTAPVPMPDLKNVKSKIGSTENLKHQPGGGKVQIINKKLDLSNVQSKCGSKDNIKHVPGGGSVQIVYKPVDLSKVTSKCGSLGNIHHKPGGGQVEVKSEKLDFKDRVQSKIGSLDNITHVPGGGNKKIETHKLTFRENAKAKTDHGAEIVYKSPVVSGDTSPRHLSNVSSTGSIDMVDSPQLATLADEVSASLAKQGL
iPHF, sequence (P10636 other isoform, or with tags, fused parts or gaps): as the sequence (P10636 other isoform, or with tags, fused parts or gaps limits assumed) above
T2 sequence (peptide, as listed by the source): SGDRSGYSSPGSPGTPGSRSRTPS

B1: VY003 (antibody, V domains shown)
VH: EVQMVESGGGLVQPGGSLTLSCAASGFTFSSYRMNWVRQAPGKGLEWVSYISSSRSAIYYADSVKGRFTISRDNAKNSLYLQMNSLRDEDTAVYYCATLGIGYWGQGTLVTVSS
VL: DIVMTQTPLSSPVTLGQPASISCRSSQSLVHSDGNTYLSWLQQRPGQPPRLLIYKISNRFSGVPDRFSGSGAGTDFTLKITRVEAEDVGIYYCMQVTQFPRTFGQGTKVEIR
[1]
  binding result: no binding
[2]
  OD450: 0.062 OD450 nm
[3]
  OD450: 0.065 OD450 nm
[4]
  OD450: 0.065 OD450 nm
[5]
  OD450: 0.06 OD450 nm
[6]
  OD450: 0.082 OD450 nm
[7]
  OD450: 0.119 OD450 nm
[8]
  EC50: 0.06 nM
iPHF
  Kd: 4.6 nM
[9]
  Kd: 0.0124 nM

B2: VY011 (antibody, V domains shown)
VH: QVQLQESGPGLVKPSETLSLTCTVSGGSISNYYWTWIRQPAGKGLEWIGRVYTSGSANYNPSLKSRVTMSVDTSKNQFSLTLSSVTAADTAVYYCARDRGLYYWGQGTLVTVSS
VL: B1 VL with P12L, N58K, S61F, T81N, V96A, R101L, Q105G, R112K
[10]
  binding result: no binding
[4]
  OD450: 0.06 OD450 nm
[5]
  OD450: 0.06 OD450 nm
[8]
  EC50: 0.03 nM
iPHF
  Kd: 2 nM
[9]
  Kd: 0.0089 nM
